Experiments:
[1] = molecular target: Acrophialophora nainiana xylanases
[2] = molecular target: Aspergillus niger xylanases
[3] = molecular target: Acrophialophora nainiana xylanases; remark: listed apart in the source

Coffea arabica Chitinase-like Xylanase Inhibitor Protein (natural protein)
Inhibition (%) of xylanase activity (oat spelt xylan, DNS reagent, Abs 540 nm; 60 μg xylanases, 5 μg CaclXIP, 12:1 w/w, 50°C, 30 min) [1]: 57%
Inhibition (%) of xylanase activity (oat spelt xylan, DNS reagent, Abs 540 nm; 60 μg xylanases, 5 μg CaclXIP, 12:1 w/w, 50°C, 30 min) [2]: 19.5%
Inhibition (%) of xylanase activity (oat spelt xylan, DNS reagent, Abs 540 nm; enzymes:inhibitor ratio 12:1 w/w) [3]: 56%

Reference: paper PMC3045311
